No end group written: not given here. TMR = tetramethylrhodamine
Target: actin (rabbit muscle) (rabbit, UniProt P68135 1-377)
Assay: FP; actin filaments

Kd: 18.9 µM
Binder: {TMR}-MPAKTPIYLKAANNKKGKKFK (domain or fragment) [Cdc42EP3 (1-21), TMR labeled at the N-terminus]
